Measurements as given in article PMC6520106.

Columns and labels:
[1] = target: BicD2-CTD (C-terminal cargo binding domain of human BicD2, residues 715-804) (human); assay: ITC
[2] = target: BicD2-CTD (C-terminal cargo binding domain of human BicD2, residues 715-804) (human); assay: SEC-MALS
[3] = target: Rab6 (Homo sapiens) (UniProt P20340); conditions: cited from earlier work
UniProt P20340, sequence (P20340 2-208): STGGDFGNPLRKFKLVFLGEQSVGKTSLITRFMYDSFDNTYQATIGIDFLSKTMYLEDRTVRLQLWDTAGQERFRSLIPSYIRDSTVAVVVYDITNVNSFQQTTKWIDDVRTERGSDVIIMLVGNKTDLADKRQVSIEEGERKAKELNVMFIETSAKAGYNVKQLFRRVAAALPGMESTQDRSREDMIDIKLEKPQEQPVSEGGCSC

## Nup358-RBD2/RanGTP complex (from UniProt P62826 1-216)
[1]
  Kd: 3.8 µM
  dH: -12.8 kcal/mol

## Nup358-RBD2 (residues 2006-2443 of human Nup358) (domain or fragment)
[1]
  Kd: 0.5 µM
  dH: -14.9 kcal/mol
[2]
  stoichiometry N (binder per target (2:2 complex)): 1

## Rab6^GTPmin (human Rab6a Q72L, residues 13-174) (from UniProt P20340 13-174) (domain or fragment)
[1]
  Kd: 12 µM

## BicD2 (from UniProt Q8TD16)
[3]
  Kd: 1 µM

## BicD2-CTD (C-terminal cargo binding domain of human BicD2, residues 715-804) (domain or fragment)
[2]
  stoichiometry N: 2

## Rab6^GTP (full-length human Rab6a Q72L, GTP-locked) (from UniProt P20340 1-208) (natural protein)
[1]
  Kd: 12.6 µM
[2]
  stoichiometry N (binder per target (2:2 complex)): 1
